# Like-named read-outs stand apart in the source and are kept apart here.
# Tests used:
# Assay in all cases: cell-based or functional assay
# rat NGF [1] = molecular target: T1, rat NGF (rat, UniProt P25427 122-241, limits assumed)
# human NGF = human NGF (human, UniProt P01138 122-241, limits assumed)
# rat NGF [2] = molecular target: T1, rat NGF; remark: listed apart in the source
# rat NGF [3] = molecular target: T1, rat NGF; remark: listed apart in the source
# Sequence of human NGF (P01138 122-241 limits assumed): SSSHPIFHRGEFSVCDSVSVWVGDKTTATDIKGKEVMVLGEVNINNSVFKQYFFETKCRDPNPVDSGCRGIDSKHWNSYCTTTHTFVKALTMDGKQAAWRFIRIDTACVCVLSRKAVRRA
# T1 sequence (P25427 122-241 limits assumed): as the sequence (P01138 122-241 limits assumed) above, with S3T, I6V, R9M, M37T, D60A, D65E, M92T, G94D, V117A, A120G counted along it
Molecule,"IC50, inhibition of rat NGF-dependent survival of mouse E13.5 trigeminal neurons, 1.5 pM NGF (rat NGF [1]) [pM]","IC50, inhibition of rat NGF-dependent survival of mouse E13.5 trigeminal neurons, 15 pM NGF (rat NGF [1]) [pM]","IC50, inhibition of human NGF-dependent survival of mouse E13.5 trigeminal neurons, 1.5 pM NGF (human NGF) [pM]","IC50, inhibition of human NGF-dependent survival of mouse E13.5 trigeminal neurons, 15 pM NGF (human NGF) [pM]","IC50, inhibition of rat NGF-dependent survival of mouse E13.5 trigeminal neurons, 1.5 pM NGF (rat NGF [2]) [pM]","IC50, inhibition of rat NGF-dependent survival of mouse E13.5 trigeminal neurons, 15 pM NGF (rat NGF [2]) [pM]","IC50, inhibition of NGF-dependent survival of mouse E13.5 trigeminal neurons, 15 pM rat NGF (rat NGF [3]) [pM]"
mouse antibody 911 (Fab),34.6,161,63.5,322,,,
"3C (Fab) (Fab, V domains shown) VH: QVQLQESGPGLVKPSETLSLTCTVSGFSLIGYDLNWIRQPPGKGLEWIGIIWGDGTTDYNSAVKSRVTISKDTSKNQFSLKLSSVTAADTAVYYCARGGYWYATSYYFDYWGQGTLVTVS VL: DIQMTQSPSSLSASVGDRVTITCRASQSISNNLNWYQQKPGKAPKLLIYYTSRFHSGVPSRFSGSGSGTDFTFTISSLQPEDIATYYCQQERTLPYTFGQGTKLEIKR",,,5.6,80.9,6,31.6,
"8L2-6D5 (CDR-grafted antibody with framework mutation V71K) (Fab, V domains shown) VH: QVQLQESGPGLVKPSETLSLTCTVSGFSLIGYDINWIRQPPGKGLEWIGMIWGDGTTDYNSALKSRVTISKDTSKNQFSLKLSSVTAADTAVYYCARGGYYYGTSYYFDYWGQGTLVTVS VL: DIQMTQSPSSLSASVGDRVTITCRASQDISNHLNWYQQKPGKAPKLLIYYISRFHSGVPSRFSGSGSGTDFTFTISSLQPEDIATYYCQQSKTLPYTFGQGTKLEIKR",,,462,1580,169,730,
"antibody E3 (Fab) (Fab, V domains shown) VH: QVQLQESGPGLVKPSETLSLTCTVSGFSLIGYDLNWIRQPPGKGLEWIGIIWGDGTTDYNSAVKSRVTISKDTSKNQFSLKLSSVTAADTAVYYCARGGYWYATSYYFDYWGQGTLVTVS VL: DIQMTQSPSSLSASVGDRVTITCRASQSISNNLNWYQQKPGKAPKLLIYYTSRFHSGVPSRFSGSGSGTDFTFTISSLQPEDIATYYCQQEHTLPYTFGQGTKLEIKR",,,< 1.2,< 21,< 1.3,< 8.3,~31.6
"H19-L129 (Fab, V domains shown) VH: QVQLQESGPGLVKPSETLSLTCTVSGFSLIGYDLNWIRQPPGKGLEWIGIIWGDGTTDYNSAVKSRVTISKDTSKNQFSLKLSSVTAADTAVYYCARGGYYYGTSYYFDYWGQGTLVTVS VL: DIQMTQSPSSLSASVGDRVTITCRASQSISNNLNWYQQKPGKAPKLLIYYTSRFHSGVPSRFSGSGSGTDFTFTISSLQPEDIATYYCQQSKTLPYTFGQGTKLEIKR",,,9.6,60.1,6,31,

# — patent US20100260775A1 (Pfizer, published 2010)
